A short description of the data set: yeast display, Sf9 membrane polyspecificity reagent, FACS + sequencing; frameworks hold sequencing errors. Put shortly: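 Galactose induction of a Saccharomyces cerevisiae BJ5465 synthetic nanobody display library ran 36–48 hours. The cells were then stained for 1 hour at 4 °C with 10% biotinylated, detergent-solubilized Sf9 membrane reagent, pulled down on streptavidin microbeads and FACS-sorted into low and high (top ~1%) gates on expression and reagent-binding fluorescence. Labels for polyreactivity follow the gate of origin.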
“QVQLVESGGGLVQAGGSLRLSCAASGSTFRYNAMGWYRQAPGKERELVAAINWSGSSTYYADSVKGRVTISRDNAKNTVYLQMNRLKPEDTAVNYCAAERPWYTKWGEYWGQGTQVTVSS”: the “polyreactivity (PSR sort gate)” value is reported as “high polyreactivity”.

With “QVQLVESGGGLVQAGGSLRLSCAASGSTFRYNAMGWYRQAPGKERELVAAITSSGSRTYYADSVKGRFTISRDNAKNTVYFQMISLKPEDTAVYYCAAYGYYTKVTKYDYWGQGTQVTVSS”, the “polyreactivity (PSR sort gate)” value is “high polyreactivity”.

Take “QVQLVESGGGLVQAGGSLRLSCAASGSTFRYNAMGWYRQAPGKERELVASISYNGGNTYYADSVKGRFTISRDNSKNTVYLQMNSLKPEDTAVYYCAAVPIKRGLILGDRGYNYWGQGTQVTVSS”: the “polyreactivity (PSR sort gate)” value is given as “high polyreactivity”.

As to “QVQLVESGGGLVQAGGSLRLSCAASGSTFRYNAMGWYRQEPGKERELVAAISSSGGSTRYADSVKGRFTISRDNAKNTVYLQMNSLKPEDTAVYHCAVRFYDWRYYYWGQGTQVTVSS”, the “polyreactivity (PSR sort gate)” value is reported as “high polyreactivity”.

“QVQLVESGGGLVQAGGSLRLSCAASGSTFRYNTMGWYRQAPGKERELVARITSVGSTNYADSVKGRFTISRDNAKNTVYLQMNSLKPEDTAVYYCATTRPIRRTSARYNYWGQGTQVTVSS”: the “polyreactivity (PSR sort gate)” value is “low polyreactivity”.

Consider “QVQLVESGGGLVQAGGSLRLSCAASGSTFRYYAKGWYRQAPGKERELVAAINYGGGRTYYADSVKGRFTISRDIAKNTVYLQMNSLKPEDTAVYYCATGYYYYRFYTYGYWGQGTQVTVSS”, for which the “polyreactivity (PSR sort gate)” value is on record as “high polyreactivity”.

Regarding “QVQLVESGGGLVQAGGSLRLSCAASGSTFRYYALGWYRQAPGKEREVVASISIGGGSTYYADSVKGRFTISRDYAKNTVYVQMNSLKPEDTAVYYCAAERTIRAARPFFRTFDYWGQGTQVTVSS”, the “polyreactivity (PSR sort gate)” value is reported as “low polyreactivity”.

In the case of “QVQLVESGGGLVQAGGSLRLSCAASGSTFRYYAMGWYRQAPGKEREFVAAINWSGTSTYYADSVKGRFTISRDNAKNTVYLQMNRLKPEDTAVYYCNARYGLRYVRYGEMDYWGQGTQVTVSA”, the “polyreactivity (PSR sort gate)” value is listed as “high polyreactivity”.

With “QVQLVESGGGLVQAGGSLRLSCAASGSTFRYYAMGWYRQAPGKERELVAAIDWSGGTTYYADSVKGRFTISRDNAKNTFYLQMNSLKPEDTAVYYCAADSSRRIGEDYWGHGTQVTVSS”, the “polyreactivity (PSR sort gate)” value is “low polyreactivity”.

Turning to “QVQLVESGGGLVQAGGSLRLSCAASGSTFRYYAMGWYRQAPGKERELVAAISRRGGSSYYADSVKGRFTISRDNAKKTVYLQMNSLKPEDTAVYYCNAAASTFTSWIRGPGVCYDYWGQGTQVTVSS”, the “polyreactivity (PSR sort gate)” value was “high polyreactivity”.

Regarding “QVQLVESGGGLVQAGGSLRLSCAASGSTFRYYAMGWYRQAPGKERELVAAISRSGGRTYYADSVKGRFTISRDNAKNTAYLQMNRLKPEDTAVYYCAVVVWWFTGCLGPYDYWGKGTQVTVSS”, the “polyreactivity (PSR sort gate)” value is reported as “high polyreactivity”.

Turning to “QVQLVESGGGLVQAGGSLRLSCAASGSTFRYYAMGWYRQAPGKERELVAAISYGGGITNYADSVKGRLTISRDNAKNTVYLQMNSLKPEDTAVYYCAAYDRITRYDYWGQGTQVTVSS”, the “polyreactivity (PSR sort gate)” value was “high polyreactivity”.

“QVQLVESGGGLVQAGGSLRLSCAASGSTFRYYAMGWYRQAPGKERELVAAITWSGGRTTYADSVKGRFTISRDNAKNTVYLQMNSLKPEDTAVYYCAAEWHYFVTMYYWGQGTQVTVSS”: the “polyreactivity (PSR sort gate)” value is on record as “low polyreactivity”.

With “QVQLVESGGGLVQAGGSLRLSCAASGSTFRYYAMGWYRQAPGKERELVAGITRIGGRTYYADSVKGRFTISRDNAKNTVDLQMNSLKPEDTAVYYCAADYGGFLGYDYWGQGTQVTLSS”, the “polyreactivity (PSR sort gate)” value is given as “high polyreactivity”.

As to “QVQLVESGGGLVQAGGSLRLSCAASGSTFRYYAMGWYRQAPGKERELVASITWSGGSTYYADSVKGRFTISRDNAKNTVYLQMNSLKPEDTAVYYCAARQYIGSPPHRRRFDYWGQGTQVTVSS”, the “polyreactivity (PSR sort gate)” value is given as “high polyreactivity”.

For “QVQLVESGGGLVQAGGSLRLSCAASGSTFRYYSMGWYRQAPGKERELVAAITYRGGRTYYADSVKGRFTISRDNAKNTDYLQKNSLKPEDTAVYYCAAKSGRHSMDSSGQGTQVTVSS”, the “polyreactivity (PSR sort gate)” value is “low polyreactivity”.

“QVQLVESGGGLVQAGGSLRLSCAASGSTFRYYTMGWYRQAPGKERELVAAISSSGTRTYYADSVKGRFTISRDYAKNTVYLQMNSLKPEDTAVYYCDTVFLRSDGWRRSNMDYWGQGTQVTVSS”: the “polyreactivity (PSR sort gate)” value was “high polyreactivity”.

As to “QVQLVESGGGLVQAGGSLRLSCAASGSTFRYYTMGWYRQAPGKERELVAAITWSGGSTYYADSVKGRFTISRDNAKNTVYLQMNSLKPEDTAVYYCAADRYSYGSNGYPRFEYYYWGQGTQVTVSS”, the “polyreactivity (PSR sort gate)” value was “high polyreactivity”.

On to “QVQLVESGGGLVQAGGSLRLSCAASGSTFSANTMGWYRQAPGKERELVAAISSSGVGTRYADSVKGRFTISRDNAKNTVYLQMNSLKPEDTAVYYCNADLYGGGDKSVISGLNGEYEYWGQGTQVTVSS”, for which the “polyreactivity (PSR sort gate)” value is recorded as “low polyreactivity”.

In the case of “QVQLVESGGGLVQAGGSLRLSCAASGSTFSANTMGWYRQAPGKQREFVAAISSSGVGTRYADSVKGRFTISRDYAKNTVYLQMNSLKPEDTAVYYCAADYRPTVITRNDYWGQGTQVTVSS”, the “polyreactivity (PSR sort gate)” value is on record as “low polyreactivity”.

As for “QVQLVESGGGLVQAGGSLRLSCAASGSTFSDNAMGWSRQAPGKERELVATIDYDGSTYYADSVKGRFTISRDNAKNTVYLQMNSLRTEDTAVYYCAADVYQVPGPYWSRTYEYDYWGQGTQVTVSS”, the “polyreactivity (PSR sort gate)” value is “low polyreactivity”.

As for “QVQLVESGGGLVQAGGSLRLSCAASGSTFSDNAMGWYRQAPGKERELVAAITSGGSTYYADSVKGRFTISRDNAKNTVYLQMNSLKPEDTAVYYCATGGVTFGSVVRGVDGDYWGQGTQVTVSS”, the “polyreactivity (PSR sort gate)” value is “low polyreactivity”.

For “QVQLVESGGGLVQAGGSLRLSCAASGSTFSDNAMGWYRQAPGKERELVAGITGGGGTYYADSVKGRFTISRDNAKNTVYLQMNSLKPEDTAVYYCAADTWGTPTPFVHYPEFEHWGQGTQVTVSS”, the “polyreactivity (PSR sort gate)” value is “low polyreactivity”.

As to “QVQLVESGGGLVQAGGSLRLSCAASGSTFSDYAMGWYRQAPGKERELVAAISDSGSGTYYADSVKGRFTISRDNAKNTVYLQMNSLKPEDTAVYYCNTDPRFAMDWGQGTQVTVSS”, the “polyreactivity (PSR sort gate)” value is listed as “low polyreactivity”.

In the case of “QVQLVESGGGLVQAGGSLRLSCAASGSTFSDYAMGWYRQAPGKERELVAAISGGGTTDYADSVKGRFTISRDNAKNTVYLQMNSLKPEDTAVYYCNKPVEGSFLPYSYLRFDYWGQGTQVTVSS”, the “polyreactivity (PSR sort gate)” value is “low polyreactivity”.

In the case of “QVQLVESGGGLVQAGGSLRLSCAASGSTFSDYAMGWYRQAPGKERELVAAISYSGGSTYYADSVKGRFTISRDNAKNTVYLQMNSLKPEDTAVYYCAAEYERYFGYDYWGQGTQVTVSS”, the “polyreactivity (PSR sort gate)” value is “low polyreactivity”.

For the sequence “QVQLVESGGGLVQAGGSLRLSCAASGSTFSDYVMGWYRQAPGKERELVAAISWSGDRTYYADSVKGRFTISRDNAKNTVYLQMNSLKPEETAVYYCAAEYAPSEPSYYYGYDYWGQGTQVTVSS”, the “polyreactivity (PSR sort gate)” value is “high polyreactivity”.

Consider “QVQLVESGGGLVQAGGSLRLSCAASGSTFSFYTMGWYRQAPGKERELVAAISQSGTSTYYADSVKGRFTISRDNAKNTVFLQMNSLKPEDTAVYYCATVRKFYFHTRWYYYEGGYWGQGTQVTVSS”, for which the “polyreactivity (PSR sort gate)” value was “high polyreactivity”.

On to “QVQLVESGGGLVQAGGSLRLSCAASGSTFSGNAMGWYRQAPGKERELVAAISSGGDTYYADSVKGRFTNSRDNAKNTVYLQMNSLKPEDTAVYYCNARSTWRHRRDQVDFDYWGQGTQVTVSS”, for which the “polyreactivity (PSR sort gate)” value is “low polyreactivity”.

As to “QVQLVESGGGLVQAGGSLRLSCAASGSTFSGNAMGWYRQAPGKERELVAAITSGGSTNYADSVKGRFTISRDNAKNTVYLDMNSLKPEDTAVYYCAKRYGYRRYYTASDYWGQGTQVTVSS”, the “polyreactivity (PSR sort gate)” value was “low polyreactivity”.

“QVQLVESGGGLVQAGGSLRLSCAASGSTFSGNAMGWYRQAPGKERELVAGIRQSGDSTYYADSVKGRFTISRDNAKNTVYLQMNSLKPEDTAVYDCNARAFPFGTGVQGFGFGYWGQGTQVTVSS”: the “polyreactivity (PSR sort gate)” value is recorded as “low polyreactivity”.

Regarding “QVQLVESGGGLVQAGGSLRLSCAASGSTFSGYTMGWYRQAPGKERELVASISSGVSTYYADSVKGRFTISRDNAKNTVYLQMNSLKPEDTAVYYCAADSVGDYGYQVYASWGYEDEYWGQGTQVTVSS”, the “polyreactivity (PSR sort gate)” value is listed as “low polyreactivity”.

Regarding “QVQLVESGGGLVQAGGSLRLSCAASGSTFSHYAMGWYRQAPGKERELVAAISTSGGSTYYADSVKGRFTISRDNAKNTVYLQMNSLKPEDTAVYYCAAAVPRQGNYGGYEYWGQGSQVTVSS”, the “polyreactivity (PSR sort gate)” value is listed as “high polyreactivity”.

For the sequence “QVQLVESGGGLVQAGGSLRLSCAASGSTFSHYAMVWYRQAPGKERELVATITGTGVRTYYADSVKGRFTISRDNAKNTVYLQMNSLKPEDTAVSYCAVPPSKRGAQAQPWMDYWGQGTQVTVSS”, the “polyreactivity (PSR sort gate)” value is recorded as “low polyreactivity”.

In the case of “QVQLVESGGGLVQAGGSLRLSCAASGSTFSINAMGWYRQAPGKERELVAAISWRGSGTYYADSVKGRFTISRDNAKNTVYLQMNSLKPEDTAVYYCAAEWDRPLYYPWYVEYDYWGQGTQVTVSS”, the “polyreactivity (PSR sort gate)” value was “high polyreactivity”.

Turning to “QVQLVESGGGLVQAGGSLRLSCAASGSTFSIYAMGWYRQAPGKERELVAAISSSGGSTYYADSVKGRFTISRDNAKNTFYLQMNSLKPEDTAVYYCNKRKYHVRYDYWGQGTQVTVSS”, the “polyreactivity (PSR sort gate)” value was “low polyreactivity”.

Turning to “QVQLVESGGGLVQAGGSLRLSCAASGSTFSKKAMGWYRQAPGKERELVAAITGRGGNTYYADSVKGRFTLSRDNAKNTVYLQMNSLKPEDTAVYYCAASWATYWFYRKAYNYWGQGTQVTVSS”, the “polyreactivity (PSR sort gate)” value is recorded as “high polyreactivity”.

On to “QVQLVESGGGLVQAGGSLRLSCAASGSTFSKNAMGWYRQAPGKERELVASISSSGGSTYYADSVKGRFTISRDNAKNTVYLQMNSLKPEDTAVYYCNRRWYARGEYWGQGTQVTVSS”, for which the “polyreactivity (PSR sort gate)” value was “high polyreactivity”.

With “QVQLVESGGGLVQAGGSLRLSCAASGSTFSKNTMGWYRQAPGKERELVAAITGTGDSTYYADSVKGRFTISRDNAKYPVYLQMNSLKPEDTAVYYCAADAYSLCYESWGQGTKVTVSS”, the “polyreactivity (PSR sort gate)” value is recorded as “low polyreactivity”.

As to “QVQLVESGGGLVQAGGSLRLSCAASGSTFSKYAMGWYRQAPGKERELVAAITWRASTYYADSVKGRFTISRDNAKNTVYLQMNSLKPEDTAVYYCAVRQSQRGGTSSNTSNDYWGQGTQVTVSS”, the “polyreactivity (PSR sort gate)” value is reported as “high polyreactivity”.

The record behind these values is the nanobody polyreactivity screen of Harvey et al. (2022).
